In assay [1] the target is T1, Ryk-Fc fusion protein (human).
T1 chain: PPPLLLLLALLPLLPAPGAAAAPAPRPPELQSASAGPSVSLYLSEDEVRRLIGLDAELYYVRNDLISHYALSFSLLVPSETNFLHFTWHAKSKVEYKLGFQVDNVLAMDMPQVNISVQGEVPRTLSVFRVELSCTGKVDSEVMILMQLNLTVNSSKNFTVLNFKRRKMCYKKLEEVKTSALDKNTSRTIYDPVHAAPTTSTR
Nature of the assay: SPR, BIACORE 2000, 25 C; scFv 1B4 amine coupled to CM5 chip, Ryk-Fc 30 to 242 nM injected; global fit A + B = AB. (In general: In SPR one partner is held on a chip, and binding of the other changes the refractive index at the surface.)

Assay [2] addresses T1, Ryk-Fc fusion protein. As to the kind of experiment: SPR, BIACORE 2000, 25 C; scFv 1B4 amine coupled to CM5 chip, Ryk-Fc 30 to 242 nM injected; KD = koff/kon.

Results on one molecule are retold here after WO2001085789A2 (dated 2001).

As a reminder, the koff is a measure of how fast the partners let go of each other. As usually defined, the kon is the second-order rate constant of association. Usually Kd stands for the concentration at which binding is half-saturated.

B1: anti-Ryk scFv 1B4 antibody (scFv, V domains shown)
VH: EVQLVQSGAEVKKPGSSVKVSCKASGGTFSSYAISWVRQAPGQGLEWMGGIIPIFGTANYAQKFQGRVTITADESTSTAYMELSSLRSEDTAVYYCARSYYDWFDYWGQGTLVTVSS
VL: IVLTQPPSVSGAPGQRVTISCSGSSSNIGSNYVSWYQQLPGTAPKLLIYDNNQRPSGVPDRFSGSKSGTSASLAITGLQSEDEADYYCQSWDSIAQIVFGGGTKLTVL
Consider B1, for which, in assay [1], the koff is 0.00067 s⁻¹ and the kon stood at 50000 M⁻¹ s⁻¹. Also, binding in assay [2] was characterised by a dissociation constant (Kd) of 13.3 nM.
